Consider four molecules from PMC9482650, “Quantitative fragmentomics allow affinity mapping of interactomes” (Nature Communications, 2022).

Usually pKd stands for the Kd on a negative log10 scale, so that one unit is a factor of ten.

Among the targets are SCRIB_1, Q14160; PARD3_3, Q8TEW0; DLG1_2, Q12959; GRIP2_7, Q9C0E4; DLG4_2, P78352; FRMPD3, Q5JV73; PDLIM1, O00151; MAGI2_2, Q86UL8; LDB3, O75112; GRASP, Q7Z6J2.
What all share (assay): holdup assay
What all share (design): key: below the threshold = too weak to quantify, mostly under pKd 3.1 to 4

A further experiment concerns the target T1, PTPN13_1, Q12923.
T1 sequence (Q12923 1088-1188, limits assumed, looked up): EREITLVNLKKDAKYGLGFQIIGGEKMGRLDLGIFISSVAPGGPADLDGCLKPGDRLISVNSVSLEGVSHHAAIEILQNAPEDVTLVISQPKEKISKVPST

Another experiment has as its target T2, LIN7B, Q9HAP6.
T2 sequence (Q9HAP6 88-185, limits assumed, looked up): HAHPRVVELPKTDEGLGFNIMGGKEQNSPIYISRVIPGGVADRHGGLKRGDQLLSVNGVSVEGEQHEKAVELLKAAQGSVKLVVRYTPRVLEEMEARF

The target in the next experiment is T3, CARD11, Q9BXL7.
T3 sequence (Q9BXL7 662-765, limits assumed, looked up): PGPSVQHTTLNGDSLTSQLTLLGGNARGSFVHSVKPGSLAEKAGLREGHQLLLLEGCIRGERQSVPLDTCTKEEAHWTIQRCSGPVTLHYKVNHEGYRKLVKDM

The target of the next experiment is T4, HTRA3, P83110.
T4 sequence (P83110 354-453, limits assumed, looked up): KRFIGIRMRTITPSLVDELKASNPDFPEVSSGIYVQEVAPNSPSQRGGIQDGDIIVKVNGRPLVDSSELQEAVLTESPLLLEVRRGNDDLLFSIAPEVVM

The target of a further experiment is T5, TIAM2, Q8IVF5.
T5 sequence (Q8IVF5 885-986, limits assumed, looked up): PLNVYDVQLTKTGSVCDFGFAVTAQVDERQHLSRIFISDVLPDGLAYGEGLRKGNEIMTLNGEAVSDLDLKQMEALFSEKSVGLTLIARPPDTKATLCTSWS

For a further experiment, the target named is T6, GRIP1_4, Q9Y3R0.
T6 sequence (Q9Y3R0 467-571, limits assumed, looked up): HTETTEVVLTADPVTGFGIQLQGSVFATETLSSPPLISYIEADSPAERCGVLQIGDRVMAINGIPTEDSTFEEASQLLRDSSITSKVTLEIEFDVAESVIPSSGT

The next experiment concerns the target T7, SNTA1, Q13424.
T7 sequence (Q13424 82-180, limits assumed, looked up): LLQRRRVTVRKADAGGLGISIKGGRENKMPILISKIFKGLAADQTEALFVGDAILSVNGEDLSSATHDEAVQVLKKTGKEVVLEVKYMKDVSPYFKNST

Another experiment has as its target T8, DFNB31_1, Q9P202.
T8 sequence (Q9P202 135-233, limits assumed, looked up): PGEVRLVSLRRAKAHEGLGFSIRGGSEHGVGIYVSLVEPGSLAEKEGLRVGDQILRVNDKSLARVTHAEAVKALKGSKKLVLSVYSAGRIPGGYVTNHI

A further experiment has as its target T9, APBA1_1, Q02410.
T9 sequence (Q02410 651-752, limits assumed, looked up): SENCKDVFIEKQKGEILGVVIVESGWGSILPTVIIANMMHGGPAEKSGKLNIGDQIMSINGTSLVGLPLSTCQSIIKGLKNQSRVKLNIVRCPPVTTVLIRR

The target in another experiment is T10, DFNB31_2, Q9P202.
T10 sequence (Q9P202 274-371, limits assumed, looked up): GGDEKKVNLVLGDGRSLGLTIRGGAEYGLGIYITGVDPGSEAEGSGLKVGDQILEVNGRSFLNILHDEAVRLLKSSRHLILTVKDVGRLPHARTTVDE

The next experiment addresses T11, LIN7A, O14910.
T11 sequence (O14910 103-200, limits assumed, looked up): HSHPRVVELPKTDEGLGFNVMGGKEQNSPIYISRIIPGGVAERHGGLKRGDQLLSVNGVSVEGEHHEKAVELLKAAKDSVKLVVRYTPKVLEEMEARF

For another experiment, the target named is T12, PDZD7_3, Q9H5P4.
T12 sequence (Q9H5P4 857-944, limits assumed, looked up): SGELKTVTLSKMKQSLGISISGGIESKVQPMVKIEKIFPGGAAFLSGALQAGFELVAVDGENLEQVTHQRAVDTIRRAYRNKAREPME

For another experiment, the target named is T13, DFNB31_3, Q9P202.
T13 sequence (Q9P202 811-907, limits assumed, looked up): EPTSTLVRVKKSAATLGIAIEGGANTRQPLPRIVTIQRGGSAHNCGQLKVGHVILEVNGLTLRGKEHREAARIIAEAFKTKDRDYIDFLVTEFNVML

For the next experiment, the target named is T14, DVL3, Q92997.
T14 sequence (Q92997 244-331, limits assumed, looked up): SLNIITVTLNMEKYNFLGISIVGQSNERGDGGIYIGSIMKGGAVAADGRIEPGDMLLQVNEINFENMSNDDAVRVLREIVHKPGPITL

The mark [1] stands for this setting: modified: acetyl on K at position -1 from the C-terminal residue.
[2] abbreviates: plain residues with an end cap or a label only (N-terminal biotin on a linker: ado-ado).
The mark [3] stands for this setting: modified: phospho on S at position -3 from the C-terminal residue.

Sequence of PARD3_3, Q8TEW0 (Q8TEW0 582-685): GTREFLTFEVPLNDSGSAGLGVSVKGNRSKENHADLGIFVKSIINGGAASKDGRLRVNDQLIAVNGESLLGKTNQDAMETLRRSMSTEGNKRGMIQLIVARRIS
Sequence of DLG1_2, Q12959 (Q12959 314-412): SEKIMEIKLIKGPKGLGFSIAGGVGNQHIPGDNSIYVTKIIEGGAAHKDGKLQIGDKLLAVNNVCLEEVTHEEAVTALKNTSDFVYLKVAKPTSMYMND
Sequence of LDB3, O75112 (O75112 1-94): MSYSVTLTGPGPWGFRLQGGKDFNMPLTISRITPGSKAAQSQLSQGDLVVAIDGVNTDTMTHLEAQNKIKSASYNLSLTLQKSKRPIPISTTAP
Sequence of MAGI2_2, Q86UL8 (Q86UL8 410-522): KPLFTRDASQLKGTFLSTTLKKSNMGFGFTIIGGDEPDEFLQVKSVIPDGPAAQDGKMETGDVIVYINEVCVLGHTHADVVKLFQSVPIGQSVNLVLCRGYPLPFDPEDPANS
Sequence of GRIP2_7, Q9C0E4 (Q9C0E4 934-1023): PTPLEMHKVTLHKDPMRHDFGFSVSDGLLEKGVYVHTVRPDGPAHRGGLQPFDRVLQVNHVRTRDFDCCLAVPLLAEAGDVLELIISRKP
Sequence of FRMPD3, Q5JV73 (Q5JV73 12-100): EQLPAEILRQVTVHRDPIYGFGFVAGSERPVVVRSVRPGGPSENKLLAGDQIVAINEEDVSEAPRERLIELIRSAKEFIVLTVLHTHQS
Sequence of SCRIB_1, Q14160 (Q14160 718-814): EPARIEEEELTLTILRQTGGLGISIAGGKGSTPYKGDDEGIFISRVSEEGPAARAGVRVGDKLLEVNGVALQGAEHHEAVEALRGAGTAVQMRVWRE
Sequence of PDLIM1, O00151 (O00151 1-87): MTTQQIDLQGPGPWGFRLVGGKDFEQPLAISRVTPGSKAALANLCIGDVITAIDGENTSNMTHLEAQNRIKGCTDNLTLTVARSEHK
Sequence of GRASP, Q7Z6J2 (Q7Z6J2 96-193): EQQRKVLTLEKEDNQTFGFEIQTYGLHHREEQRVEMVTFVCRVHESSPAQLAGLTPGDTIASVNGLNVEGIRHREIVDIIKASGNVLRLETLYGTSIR
Sequence of DLG4_2, P78352 (P78352 155-259): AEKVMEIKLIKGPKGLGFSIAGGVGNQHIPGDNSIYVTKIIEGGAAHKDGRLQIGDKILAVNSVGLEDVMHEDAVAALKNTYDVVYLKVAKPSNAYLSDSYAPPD

B1: PTEN_Ac, P60484 (peptide)
chain: DEDQHTQITKV
Take B1: the negative logarithm of the Kd (pKd) entry with PTPN13_1, Q12923 (setting [1]) was “below the threshold”; with SCRIB_1, Q14160 (setting [1]) it was 5.23; in the experiment with LIN7B, Q9HAP6 (setting [1]), 3.57; with CARD11, Q9BXL7 (setting [1]), “below the threshold”; in the experiment with HTRA3, P83110 (setting [1]), “below the threshold”; with TIAM2, Q8IVF5 (setting [1]), “below the threshold”. The negative logarithm of the Kd (pKd) entry with GRIP1_4, Q9Y3R0 (setting [1]) was “below the threshold”; in the experiment with PARD3_3, Q8TEW0 (setting [1]) it was 3.97; with DLG1_2, Q12959 (setting [1]) it was 4.67; in the experiment with GRIP2_7, Q9C0E4 (setting [1]) it was “below the threshold”; with SNTA1, Q13424 (setting [1]), 4.71; in the experiment with DFNB31_1, Q9P202 (setting [1]), 3.68. The pKd in the experiment with DLG4_2, P78352 (setting [1]) was 4.58; in the experiment with FRMPD3, Q5JV73 (setting [1]), “below the threshold”; in the experiment with PDLIM1, O00151 (setting [1]), “below the threshold”; with APBA1_1, Q02410 (setting [1]), “below the threshold”; with MAGI2_2, Q86UL8 (setting [1]), 3.77; with DFNB31_2, Q9P202 (setting [1]), “below the threshold”. Also, the negative-log Kd (pKd) entry in the experiment with LIN7A, O14910 (setting [1]) is “below the threshold”; with LDB3, O75112 (setting [1]), “below the threshold”; with GRASP, Q7Z6J2 (setting [1]) it was 5.32; with PDZD7_3, Q9H5P4 (setting [1]), 5.82; with DFNB31_3, Q9P202 (setting [1]) it was 4.25; with DVL3, Q92997 (setting [1]), “below the threshold”.

B2: GLA, P06280 (peptide)
chain: TMQMSLKDLL
With B2, the negative-log Kd (pKd) result with PTPN13_1, Q12923 (setting [2]) was “below the threshold”; with SCRIB_1, Q14160 (setting [2]), “below the threshold”; with LIN7B, Q9HAP6 (setting [2]) it was 3.65; with CARD11, Q9BXL7 (setting [2]), “below the threshold”; with HTRA3, P83110 (setting [2]) it was “below the threshold”; in the experiment with TIAM2, Q8IVF5 (setting [2]) it was “below the threshold”. In addition, the pKd result with GRIP1_4, Q9Y3R0 (setting [2]) was “below the threshold”; in the experiment with PARD3_3, Q8TEW0 (setting [2]), 3.54; in the experiment with DLG1_2, Q12959 (setting [2]), “below the threshold”; with GRIP2_7, Q9C0E4 (setting [2]), “below the threshold”; with SNTA1, Q13424 (setting [2]), “below the threshold”; in the experiment with DFNB31_1, Q9P202 (setting [2]), “below the threshold”. Moreover, the pKd is 3.64 with DLG4_2, P78352 (setting [2]); “below the threshold” in the experiment with FRMPD3, Q5JV73 (setting [2]); “below the threshold” with PDLIM1, O00151 (setting [2]); “below the threshold” with APBA1_1, Q02410 (setting [2]); “below the threshold” in the experiment with MAGI2_2, Q86UL8 (setting [2]); “below the threshold” with DFNB31_2, Q9P202 (setting [2]). For the same molecule, the negative-log Kd (pKd) entry is “below the threshold” with LIN7A, O14910 (setting [2]); “below the threshold” in the experiment with LDB3, O75112 (setting [2]); 4.6 in the experiment with GRASP, Q7Z6J2 (setting [2]); “below the threshold” in the experiment with PDZD7_3, Q9H5P4 (setting [2]); 4.07 with DFNB31_3, Q9P202 (setting [2]); 3.6 with DVL3, Q92997 (setting [2]).

B3: GRIP1, Q9Y3R0 (peptide)
chain: LETREPTNTL
B3: the negative logarithm of the Kd (pKd) result with PTPN13_1, Q12923 (setting [2]) is “below the threshold”; in the experiment with SCRIB_1, Q14160 (setting [2]), “below the threshold”; with LIN7B, Q9HAP6 (setting [2]), “below the threshold”; with CARD11, Q9BXL7 (setting [2]), “below the threshold”; with HTRA3, P83110 (setting [2]) it was “below the threshold”; with TIAM2, Q8IVF5 (setting [2]), “below the threshold”. For the same molecule, the pKd entry in the experiment with GRIP1_4, Q9Y3R0 (setting [2]) is “below the threshold”; with PARD3_3, Q8TEW0 (setting [2]), “below the threshold”; with DLG1_2, Q12959 (setting [2]), “below the threshold”; with GRIP2_7, Q9C0E4 (setting [2]) it was “below the threshold”; in the experiment with SNTA1, Q13424 (setting [2]), “below the threshold”; with DFNB31_1, Q9P202 (setting [2]), “below the threshold”. For the same molecule, the pKd entry in the experiment with DLG4_2, P78352 (setting [2]) was “below the threshold”; in the experiment with FRMPD3, Q5JV73 (setting [2]) it was “below the threshold”; in the experiment with PDLIM1, O00151 (setting [2]), “below the threshold”; with APBA1_1, Q02410 (setting [2]) it was “below the threshold”; in the experiment with MAGI2_2, Q86UL8 (setting [2]), “below the threshold”; with DFNB31_2, Q9P202 (setting [2]), “below the threshold”. The pKd result with LIN7A, O14910 (setting [2]) was “below the threshold”; with LDB3, O75112 (setting [2]), “below the threshold”; with GRASP, Q7Z6J2 (setting [2]) it was “below the threshold”; with PDZD7_3, Q9H5P4 (setting [2]) it was “below the threshold”; in the experiment with DFNB31_3, Q9P202 (setting [2]), 3.96; with DVL3, Q92997 (setting [2]), “below the threshold”.

B4: RPS6KA1_-3P, Q15418 (peptide)
chain: RRVRKLPSTTL
B4: the negative-log Kd (pKd) entry was “below the threshold” in the experiment with PTPN13_1, Q12923 (setting [3]); 4.07 with SCRIB_1, Q14160 (setting [3]); “below the threshold” in the experiment with LIN7B, Q9HAP6 (setting [3]); “below the threshold” with CARD11, Q9BXL7 (setting [3]); “below the threshold” with HTRA3, P83110 (setting [3]); “below the threshold” with TIAM2, Q8IVF5 (setting [3]). Also, the pKd entry with GRIP1_4, Q9Y3R0 (setting [3]) is “below the threshold”; with PARD3_3, Q8TEW0 (setting [3]) it was 3.76; with DLG1_2, Q12959 (setting [3]) it was 3.61; with GRIP2_7, Q9C0E4 (setting [3]), “below the threshold”; with SNTA1, Q13424 (setting [3]) it was 4.4; with DFNB31_1, Q9P202 (setting [3]), 3.6. Also, the pKd entry is “below the threshold” with DLG4_2, P78352 (setting [3]); “below the threshold” with FRMPD3, Q5JV73 (setting [3]); “below the threshold” in the experiment with PDLIM1, O00151 (setting [3]); “below the threshold” in the experiment with APBA1_1, Q02410 (setting [3]); 3.57 with MAGI2_2, Q86UL8 (setting [3]); “below the threshold” with DFNB31_2, Q9P202 (setting [3]). Also, the negative-log Kd (pKd) result was “below the threshold” with LIN7A, O14910 (setting [3]); “below the threshold” with LDB3, O75112 (setting [3]); “below the threshold” in the experiment with GRASP, Q7Z6J2 (setting [3]); 3.72 with PDZD7_3, Q9H5P4 (setting [3]); “below the threshold” with DFNB31_3, Q9P202 (setting [3]); “below the threshold” in the experiment with DVL3, Q92997 (setting [3]).
